Test: Size-exclusion chromatography on Superdex Peptide 10/300GL column
Type: physicochemical
Conditions: for formation of aggregates by size-exclusion chromatography: peptide in PBS, Superdex Peptide 10/300GL, 0.6 ml/min; for Aggregation?: size-exclusion chromatography, peptide dissolved in PBS
Description: Approximately 200 μg of each peptide X (40 amino acids), X-1 (28 amino acids), peptide A (161 amino acids), P11 (11 amino acids), P16 (16 amino acids), P21 (21 amino acids, P16-2 (16 amino acids, scrambled sequence control), X-3 (16 amino acids) and X-4 (11 amino acids) were dissolved in phosphate-buffered saline (PBS) and loaded onto a Superdex Peptide 10/300GL column. The column was eluted with PBS at a flow rate of 0.6 mL/min and eluents were analyzed for peptide content by measuring relative absorbance at a wavelength of 215 nm. (FIGS. 3A and 3B) The data is plotted with relative absorbance (Y-axis) against elution volume (X-axis). Peptides 1-9 are color coded (A—peptides (1) to (5); B (peptides (6) to (9)). As shown on panel A, peptide X (peptide 1, black line) elution profile indicated two major peaks at approximately 8 mL and 11 mL which correspond to molecular weights greater than 12.4 kDa. The theoretical molecular weight of peptide X is 4.7 kDa which is expected to elute from the column at approximately 15 mL. Under the conditions tested, peptide X existed as high molecular weight aggregates with minimal soluble (monomeric) form. On the other hand, P16 (peptide 5, green line) elution profile indicated a broad peak between 14-22 mL which is expected to contain peptides of between 0.1 and 6 kDa and is consistent with its theoretical molecular weight of 2.01 kDa.
FIG. 4 illustrates the standard curve used for size-exclusion chromatography of standard peptides using the Superdex Peptide 10/300 GL column (results provided in FIG. 3). A pool of standard peptides of various molecular weights (1. cytochrome c (Mr 12.384 kDa) 1 mg/mL; 2. aprotinin (Mr 6.512 kDa) 2 mg/mL; 3. vitamin B12 (Mr 1.355 kDa) 0.1 mg/mL; 4. (Gly)3 (Mr 0.189 kDa) 0.1 mg/mL; 5. Gly (Mr 0.075 kDa) 7.8 mg/mL) were subjected to size-exclusion chromatography using the Superdex Peptide 10/300 GL column (flow rate 0.5 ml/min at room temperature, sample volume of 50 μL, eluent 0.05M phosphate, 0.15 M NaCl, ph 7.0). The resulting chromatogram (absorbance at 215 nm (in mAU, left Y axis) and conductivity (in mS/cm, right Y axis, in function of volume of elution (in mL)) indicates the elution profiles of the above peptides with high MW peptides eluting in earlier fractions and lower MW peptides eluting in later fractions as expected. The molecular weights of peptides were plotted against elution volume generating a standard curve (not shown).
More specifically, approximately […] of each peptide X (40 amino acids), X-1 (28 amino acids), peptide A (161 amino acids), P11 (11 amino acids), P16 (16 amino acids), P21 (21 amino acids, P16-2 (16 amino acids, scrambled sequence control), X-3 (16 amino acids) and X-4 (11 amino acids) were dissolved in phosphate-buffered saline (PBS) and loaded onto a Superdex Peptide 10/300GL column. The column was eluted with PBS at a flow rate of 0.6 ml/min and eluants were analyzed for peptide content by measuring relative absorbance at a wavelength of 215 nm. The data were plotted with relative absorbance (Y-axis) against elution volume (X-axis). […] The theoretical molecular weight of peptide X is 4.7 kDa which is expected to elute from the column at approximately 15 mL. […] P16 (peptide 5) elution profile indicated a peak between 14-22 mL which was expected to contain peptides of between 0.1 and 6 kDa and is consistent with its theoretical molecular weight of 2.01 kDa.
More specifically, a pool of standard proteins of various molecular weights were subjected to size-exclusion chromatography using the Superdex Peptide 10/300 GL column. The resulting chromatogram indicated the elution profiles of the peptides with high molecular weight peptides eluting in earlier fractions and lower molecular weight peptides eluting in later fractions as expected. The molecular weights of peptides were plotted against elution volume generating a standard curve (not shown) and was used to calculate molecular weights of the CD109-based peptides. […]

| Sequence | formation of aggregates by size-exclusion chromatography | Aggregation? | molecular weights corresponding to the elution peaks (PBS, theoretical MW peptide X 4.7 kDa, P16 2.01 kDa) |
| --- | --- | --- | --- |
| ETWIWLDTNMGSRIYQ [Peptide P16] | did not | Not aggregated | – |
| LGSSPHVRKHFPETWIWLDTNMGSRIYQEFEVTVPDSITS (Peptide X) | formed aggregates | Aggregated | greater than 12.4 kDa |
